For this assay, the target named is Bovine serum albumin (Bos taurus (Bovine), UniProt P02769). The experiment in a line: EGOTFT (SiMoT), BSA-functionalized gate.

Results on one molecule are retold here after paper PMC6611741 (2019).

Sequence of Bovine serum albumin (P02769 25-607): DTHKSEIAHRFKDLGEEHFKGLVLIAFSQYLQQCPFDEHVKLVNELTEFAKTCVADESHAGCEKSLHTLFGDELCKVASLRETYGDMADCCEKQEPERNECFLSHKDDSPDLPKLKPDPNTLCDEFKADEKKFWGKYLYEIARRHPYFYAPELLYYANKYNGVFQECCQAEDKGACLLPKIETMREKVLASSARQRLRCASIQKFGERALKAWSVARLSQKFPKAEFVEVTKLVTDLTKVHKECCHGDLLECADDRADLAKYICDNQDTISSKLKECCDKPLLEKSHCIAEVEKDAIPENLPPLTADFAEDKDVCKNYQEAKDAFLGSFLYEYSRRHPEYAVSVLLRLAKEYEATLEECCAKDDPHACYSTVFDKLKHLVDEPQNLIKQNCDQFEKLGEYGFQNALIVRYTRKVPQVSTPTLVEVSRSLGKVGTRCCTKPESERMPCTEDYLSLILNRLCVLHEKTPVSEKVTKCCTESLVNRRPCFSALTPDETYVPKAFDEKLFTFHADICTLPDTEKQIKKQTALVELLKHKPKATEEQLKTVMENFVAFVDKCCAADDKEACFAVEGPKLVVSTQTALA

B1: Human C-reactive protein (protein)
chain: QTDMSRKAFVFPKESDTSYVSLKAPLTKPLKAFTVCLHFYTELSSTRGYSIFSYATKRQDNEILIFWSKDIGYSFTVGGSEILFEVPEVTVAPVHICTSWESASGIVEFWVDGKPRVRKSLKKGYTVGAEASIILGQEQDSFGGNFEGSQSLVGDIGNVNMWDFVLSPDEINTIYLGGPFSPNVLNWRALKYEVQGEVFTKPQLWP
Consider B1, for which the binding result is recorded as “no binding”.
